Results reported in paper PMC4355161.

Target: 30/30 nucleosomes labeled with Cy3 on H4 A15C, P62799
Assay: other fluorescence titration

fold decrease in affinity against wild type SNF2h: 56 fold | fold decrease in binding against wild type SNF2h: 22 fold
B1: SNF2h ΔHSS (domain or fragment)
chain: MSSAAEPPPPPPPESAPSKPAASIASGGSNSSNKGGPEGVAAQAVASAASAGPADAEMEEIFDDASPGKQKEIQEPDPTYEEKMQTDRANRFEYLLKQTELFAHFIQPAAQKTPTSPLKMKPGRPRIKKDEKQNLLSVGDYRHRRTEQEEDEELLTESSKATNVCTRFEDSPSYVKWGKLRDYQVRGLNWLISLYENGINGILADEMGLGKTLQTISLLGYMKHYRNIPGPHMVLVPKSTLHNWMSEFKRWVPTLRSVCLIGDKEQRAAFVRDVLLPGEWDVCVTSYEMLIKEKSVFKKFNWRYLVIDEAHRIKNEKSKLSEIVREFKTTNRLLLTGTPLQNNLHELWSLLNFLLPDVFNSADDFDSWFDTNNCLGDQKLVERLHMVLRPFLLRRIKADVEKSLPPKKEVKIYVGLSKMQREWYTRILMKDIDILNSAGKMDKMRLLNILMQLRKCCNHPYLFDGAEPGPPYTTDMHLVTNSGKMVVLDKLLPKLKEQGSRVLIFSQMTRVLDILEDYCMWRNYEYCRLDGQTPHDERQDSINAYNEPNSTKFVFMLSTRAGGLGINLATADVVILYDSDWNPQVDLQAMDRAHRIGQTKTVRVFRFITDNTVEERIVERAEMKLRLDSIVIQQGRLVDQNLNKIGKDEMLQMIRHGATHVFASKESEITDEDIDGILERGAKKTAEMNEKLSKMGESSLRNFTMDTESSVYNFEGEDYREKQKIAFTE
modifications: not checked
